Experimental data reported in paper PMC8092224.

Biological target: H. pylori-bullfrog recombinant ferritin (ferritin nanoparticle) (bullfrog (Rana catesbeiana) | Helicobacter pylori)
Assay: SEC; concentrated supernatant (100-kDa MWCO TFF) on Superdex 200 Increase 10/300 GL, degassed PBS, 0.4 ml/min; size from LMW/HMW calibration standards; self-assembly of the monomer into the nanoparticle

For “H. pylori-bullfrog recombinant ferritin (ferritin nanoparticle)”, the stoichiometry N was 24.
